In the supplement of paper PMC12764529:
± gives the half width of the 95% confidence interval.

Legend:
[1] = folding stability dG unfold (combined trypsin and chymotrypsin); higher = more stable
Outline: (§1)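 Only designs with AlphaFold2 dimer inter-PAE above 15 were retained; each was a mini-protein under 80 residues with no cysteine, in a PA-tagged cDNA display construct. After digestion with trypsin and chymotrypsin and sequencing, K50 was inferred by Bayesian fitting of counts, and unfolding free energy was derived per protease or combined against a sequence-predicted unfolded-state K50 and a shared folded-state K50.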

[2] = folding stability dG unfold from chymotrypsin proteolysis; higher = more stable
Outline: as §1

[3] = folding stability dG unfold from trypsin proteolysis; higher = more stable
Outline: as §1

Sequence	folding stability dG unfold [1]	folding stability dG unfold [2]	folding stability dG unfold [3]
SAGGSAGGSAGMKIEVFPNTIKIYPENGKVLTFEAPDFGEEAIKEIAKAFPNAKIEPVEPSAGGSAGGSAGG [r17_545_TrMRF]	-0.189 ± 0.25 kcal/mol	-0.335 ± 0.16 kcal/mol	-0.338 ± 0.13 kcal/mol
SAGGSSKTEIYYNPKKPYFLIKVTYKNGKTKEYPIKGKGMSLEELKKKAEEIVKELNSEEFKEVVFNPSAGG [r13_267_TrMRF]	2.53 ± 0.14 kcal/mol	2.5 ± 0.082 kcal/mol	2.02 ± 0.12 kcal/mol
SAGGPETRTFTIPAAPATVTVTLEKVGDGYRVSLTLTNPDGQTVEVPPDQPVVIPAGASVGAALAPESAGGS [r16_669_TrMRF]	1.35 ± 0.1 kcal/mol	1.53 ± 0.091 kcal/mol	1.01 ± 0.034 kcal/mol
SITIKIPLKPGYPYALRIHFYNPNGKPREMDMNVTRKPDGEVEIPIKIPDKDIPPGQDIRIQSIEIYPMKSA [r9_359_TrROS]	1.99 ± 0.26 kcal/mol	2.59 ± 0.1 kcal/mol	1.5 ± 0.038 kcal/mol
SAGGSAGGSAGMTLTLEFTDPEVAIPLAEKLAEELGLELVEIEEREEGERPVYLVTLKVPSAGGSAGGSAGG [r11_232_JUSTAS]	1.61 ± 0.043 kcal/mol	1.52 ± 0.021 kcal/mol	1.63 ± 0.056 kcal/mol
SAGGSAGGSAGGPLKEAVEAAVASGAPEAEYLLVTPEGELRVTVKVYPEEGKVEVEVSPLSAGGSAGGSAGG [r17_475_TrMRF]	0.555 ± 0.037 kcal/mol	0.0794 ± 0.063 kcal/mol	0.903 ± 0.018 kcal/mol
SAGGSAGGVPEVVEEVAREVDPRIVTRVEVRVFEPPPEYRLVVVVVELRLPTERRFVPRVVRLRSAGGSAGG [r6_630_TrMRF]	3.25 ± 0.31 kcal/mol	3.49 ± 0.066 kcal/mol	2.85 ± 0.19 kcal/mol
SAGGSAGGSAGGMKVIKLPGLTVEIEPGYSPSEPVKITITDPKTGKVTEYEIKIPPEELPSAGGSAGGSAGG [r7_834_JUSTAS]	1.13 ± 0.042 kcal/mol	1.26 ± 0.021 kcal/mol	0.915 ± 0.052 kcal/mol
SAGGSAGGKIKLDGKEIVIVMSKEEKEKIAKELKEKFPNVKIKVVEGMSEEEAAKKADLVIVFDSAGGSAGG [r6_679_TrROS_Hall]	-0.269 ± 0.39 kcal/mol	0.0544 ± 0.23 kcal/mol	-0.142 ± 0.18 kcal/mol
SAGEEIEELAKKLADELREKYPELEVKVEVVEVTVKTTVVKDKETGKLYTKTEITVKLKVEVVPKEELSAGG [r19_293_TrROS_Hall]	3.08 ± 0.31 kcal/mol	3.81 ± 0.21 kcal/mol	1.99 ± 0.23 kcal/mol
SAGMVITISSDLSPEEVLATAQALAAELGAKKVEVERDPANPDVVTVTVEFPGLGKTVTVNVLPPELLESAG [r5_912_JUSTAS]	1.57 ± 0.15 kcal/mol	1.78 ± 0.065 kcal/mol	1.28 ± 0.059 kcal/mol
SAGSKEFPFESEFEFEGYRVKVEVKVRVEFDENGKPTKNFKPEIKIEIKPLPPKPVITAEEALKLDPEKSAG [r14_442_TrMRF]	1.47 ± 0.3 kcal/mol	1.93 ± 0.14 kcal/mol	0.114 ± 0.19 kcal/mol
SAGYWEFEIELPNGRKIEIEWQRMNGRYWFKIEVLDDNGKPVREVPIPFPNPEMPFEQMIKNAVKKILDSAG [r5_630_TrROS]	3.41 ± 0.15 kcal/mol	3.898 ± 0.032 kcal/mol	2.44 ± 0.047 kcal/mol
SAGGSAGGSAGGAKTTTLGSESEEEIRAVAAKLPADSTITTNRPGGTSVITVSPNEIVTNSAGGSAGGSAGG [r7_560_JUSTAS]	0.836 ± 0.055 kcal/mol	1.22 ± 0.046 kcal/mol	0.144 ± 0.043 kcal/mol
SAGGSAGGSAGMVDKKTGKPVEKVKVIIRNKNGKKEEKEVTLEELKELAENLPYEIEFEKSAGGSAGGSAGG [r17_125_TrROS_Hall]	1 ± 0.25 kcal/mol	0.82 ± 0.1 kcal/mol	1.16 ± 0.079 kcal/mol
SAGGKKMTFKVDEIQTHGNQIMIPIRFPDGHPFPMQIDDPEQLDNLKPGEEIKIEFRPDGSFRIEWRSAGGS [r16_2_TrROS]	1.55 ± 0.17 kcal/mol	1.65 ± 0.18 kcal/mol	1.45 ± 0.066 kcal/mol
SAGGSAGGSMTILEEEVVPETGLVRILVKLPNGELLELEVDPSVGVTPVKVDGKPIFDVTVDPSAGGSAGGS [r12_789_JUSTAS]	1.19 ± 0.11 kcal/mol	1.3 ± 0.082 kcal/mol	0.898 ± 0.038 kcal/mol
SAGGSAGGSAGPDKPIYVMIKFEHPGRKYTHSFEFDSPEDIEEVLDRLPPGYEIKEVEIFSAGGSAGGSAGG [r17_410_TrROS]	0.482 ± 0.2 kcal/mol	0.946 ± 0.25 kcal/mol	0.0221 ± 0.1 kcal/mol
SAMLEEVEERAREIAERLREEYPDVEEFTVELELPLPDGRFLRVTVTIRRERDDEGDTFEVEVDVEEVDSAG [r14_788_TrMRF]	4.46 ± 0.095 kcal/mol	4.91 ± 0.13 kcal/mol	3.47 ± 0.13 kcal/mol
SAGGMIEVFVEGLTLEETLRRLAEEYPDVPEVVVFFPDGTAVFFRRDGDEVEVVEVVPVGPVAPDELSAGGS [r8_225_TrMRF]	2.93 ± 0.061 kcal/mol	3.118 ± 0.017 kcal/mol	2.59 ± 0.068 kcal/mol
SSKIEASATIEGDVITVTLVADSLSDLLAAIKELAEKLGVSFEILSISYKRLPNGKIIATVTARVKPEDLSA [r9_102_TrMRF]	4.277 ± 0.039 kcal/mol	4.65 ± 0.048 kcal/mol	3.24 ± 0.056 kcal/mol

Sequence	folding stability dG unfold [1]	folding stability dG unfold [2]	folding stability dG unfold [3]
SAGGSPMRIRDVEIEEFDPDAGRIEIRFPSNGNTIKIPIPPGHKSLKIKIRMKNGEPFEQTITIPPSAGGSA [r2_132_TrROS]	1.01 ± 0.22 kcal/mol	1.08 ± 0.12 kcal/mol	0.578 ± 0.14 kcal/mol
SKKKKKKTIKIKITIKVEKEVKIRIIYNGKEKEITIKPGETKTIEITFPAGKVIIEIYKDGKPIKKIEIKSA [r9_411_TrROS_Hall]	2.95 ± 0.1 kcal/mol	3 ± 0.051 kcal/mol	2.94 ± 0.092 kcal/mol
SAGGSAGGMTLKIKVAPGAVIRIYNKDGELIEEIEVEEGEEVEIEIELPEEDLENLRIEILPAPSAGGSAGG [r6_471_TrROS_Hall]	4.42 ± 0.25 kcal/mol	4.6 ± 0.079 kcal/mol	3.96 ± 0.27 kcal/mol
SAGGKVEVELEDGKLRVKVFDKNGKLVEEVEVELKPVTIVIPGLSEEELQELKEKFPGAKITILEGQKSAGG [r13_235_TrROS_Hall]	2.39 ± 0.11 kcal/mol	2.87 ± 0.08 kcal/mol	1.73 ± 0.063 kcal/mol
SAGGSAGGSAGGEKVTLTLELPAEEIEELAKALAPPGAKVKITKISYDKENKKVTIEIESAGGSAGGSAGGS [r10_1030_TrROS_Hall]	1.23 ± 0.07 kcal/mol	1.4 ± 0.026 kcal/mol	0.937 ± 0.061 kcal/mol
SDALKNIPFEIVEIDPPPPDRPIPAGGTVRITVYNPLTPGQPFTFDVRFIPGEGTLIAEIGGLPVEIPIGSA [r9_243_TrMRF]	2.94 ± 0.12 kcal/mol	3.46 ± 0.082 kcal/mol	2.53 ± 0.079 kcal/mol
SAGGSAGGSWRTITYEFKLPKPGQTAEDIAKEIMQLFPGVKDIEIKYYPEEGYIKVDIRFRPNSAGGSAGGS [r20_31_TrROS]	3.13 ± 0.22 kcal/mol	2.88 ± 0.042 kcal/mol	3.37 ± 0.2 kcal/mol
SAGGSAGGSADIGDPSKIKPKPLHFSFPVKIKLSFEYNGPDGVKKTFSLELTFTVVDKGLGSAGGSAGGSAG [r3_380_TrMRF]	3.89 ± 0.44 kcal/mol	4.14 ± 0.21 kcal/mol	3.15 ± 0.2 kcal/mol
SAGRIEVYQDPNMLRVIEIPLPNGREIVIYRPPGYYHIEIENPNNNKQIPIMIPMEPGDIKKIIKEFINSAG [r5_820_TrROS]	1.33 ± 0.11 kcal/mol	1.38 ± 0.081 kcal/mol	1.18 ± 0.046 kcal/mol
SAGGGSATLVGIFPEKGYLVVLTITTDGDDFSIGELKVTFEPLDDDSVKATFYTPSGQKHDAIGLPVASAGG [r13_515_TrMRF]	1.46 ± 0.059 kcal/mol	1.42 ± 0.1 kcal/mol	1.54 ± 0.053 kcal/mol
SAGGSAGGSDYEYENEKDPDGQTKMKMRPKPPPVTVEVLIKLPNGLYFPIEITIYGNHITISISAGGSAGGS [r12_784_TrROS]	2.32 ± 0.23 kcal/mol	2.52 ± 0.075 kcal/mol	2.17 ± 0.12 kcal/mol
SAGGSAGGSAGGKIDRIQLHYNPGGNVYFRIYGPNGKPRYFMMPAEDLEDFPNAPIEIYPSAGGSAGGSAGG [r7_238_TrROS]	0.864 ± 0.096 kcal/mol	0.847 ± 0.11 kcal/mol	0.648 ± 0.04 kcal/mol
SAGGSSSTPVSSSTFTTPDGVTVSVTTTLEPDASGNPYTVTTETFPDGTVTTTTYRNGETQTTTVASAGGSA [r2_182_JUSTAS]	1.34 ± 0.088 kcal/mol	1.33 ± 0.11 kcal/mol	1.28 ± 0.041 kcal/mol
SAGGSAMKLVLTFPEGLPEIPLEELAKAIEDALPEDFEVKEIKVEPLPDGGLRLTFIVNDEEVEILSAGGSA [r15_451_TrMRF]	2.54 ± 0.048 kcal/mol	2.52 ± 0.017 kcal/mol	2.52 ± 0.062 kcal/mol
SAGGTLRNMPVEQIAKRLQNHGYEIKVENIRHNEDRVRIKIEVERRNKNGKPHEEVKISIEIPDPDDFSAGG [r13_566_TrROS]	0.559 ± 0.27 kcal/mol	0.403 ± 0.15 kcal/mol	0.461 ± 0.23 kcal/mol
SAGEKFEPVEEKELTLKITLKDKDGNEKEVEIKVKVEVVKNPDGTLTVRAEITFEDGTKIELELEIKLPSAG [r5_57_TrROS_Hall]	3.11 ± 0.33 kcal/mol	3.19 ± 0.23 kcal/mol	3.27 ± 0.16 kcal/mol
SAGGMKIIPITPEMIEEAKKLGLTPEDEAFEFEVTLPNGEVLRGTLIIPPDNPDIPVEAEPYLNLDKSAGGS [r16_497_TrMRF]	0.703 ± 0.18 kcal/mol	0.904 ± 0.092 kcal/mol	0.555 ± 0.1 kcal/mol
SAGGSAGGSAGFHIDVEVHRDDEGYVKVRVKMYMYNPDPGEPMGSFEMTIWIPPEDADKLSAGGSAGGSAGG [r11_575_TrROS]	3.7 ± 0.098 kcal/mol	3.9 ± 0.056 kcal/mol	3.33 ± 0.14 kcal/mol
SAGGSAGGIYIFFPPEDLEPIAPFTITIEVKRRDPDGDEPQPRKQTIPIRIYRAPNNNLMIEPGSAGGSAGG [r6_278_TrROS]	0.881 ± 0.087 kcal/mol	0.919 ± 0.19 kcal/mol	0.742 ± 0.11 kcal/mol
SAGGFVTFKAPPVLIEAFKKAGLTPSEAKTLLLPVKFGDKEVVVEVTFYPETGEVKVKVLSFGTEFEAESAG [r5_545_TrMRF]	3.07 ± 0.13 kcal/mol	3.38 ± 0.04 kcal/mol	2.22 ± 0.069 kcal/mol
SAGGSAGGSDTLEYEVPLEDGSTIRITLFPDGTARVELEDGTPVAEIEVPPDTSIEELIARIRSAGGSAGGS [r12_990_TrMRF]	2.45 ± 0.076 kcal/mol	2.06 ± 0.063 kcal/mol	2.74 ± 0.081 kcal/mol
